Article PMC11838356 (bioRxiv, 2025)

Target: the molecule itself
Test: cryo-EM structure

B1: ArnC from Salmonella enterica (ArnCSe) (enzyme, UniProt O52324 1-327, looked up)
chain: MFDAAPIKKVSVVIPVYNEQESLPELIRRTTTACESLGKAWEILLIDDGSSDSSAELMVKASQEADSHIISILLNRNYGQHAAIMAGFSHVSGDLIITLDADLQNPPEEIPRLVAKADEGFDVVGTVRQNRQDSLFRKSASKIINLLIQRTTGKAMGDYGCMLRAYRRPIIDTMLRCHERSTFIPILANIFARRATEIPVHHAEREFGDSKYSFMRLINLMYDLVTCLTTTPLRLLSLLGSVIAIGGFSLSVLLIVLRLALGPQWAAEGVFMLFAVLFTFIGAQFIGMGLLGEYIGRIYNDVRARPRYFVQQVIYPESTPFTEESHQ
stoichiometry N: 4
